{"source": "patent US8129345B2", "about": "“MUC1-IκB kinase complexes and their activities” (Dana-Farber Cancer Institute, Inc., priority 2006, dated 2012)", "key": {"IKKβ [1]": {"molecular_target": "IKKβ (Homo sapiens, UniProt O14920)", "test": "In vitro incubation of IKKβ and IKKγ with ATP, phospho-IKKβ-Ser-181 immunoblot", "type": "biochemical", "conditions": "MUC1 protein added to the reaction", "procedure": "(§1) FIG. 13 is a series of photographs of immunoblots. GST, and GST-IKKγ fusion proteins bound to glutathione beads were incubated with MUC1-CD, MUC1-CD(mSRM), or IKKβ proteins as indicated. The GST-pull down precipitates were immunoblotted (IB) with antibodies specific for (from top to bottom) phosphor-IKKβ-Ser-181 (first panel), IKKγ (second panel), IKKβ (third panel), or MUC1 (fourth panel) as indicated. The molecular weights of proteins (as indicated on the left of the photographs) are expressed as kilodaltons (kDa)."}, "IKKβ [2]": {"molecular_target": "T1, IKKβ (Homo sapiens, UniProt O14920)", "T1 sequence (O14920 1-756)": "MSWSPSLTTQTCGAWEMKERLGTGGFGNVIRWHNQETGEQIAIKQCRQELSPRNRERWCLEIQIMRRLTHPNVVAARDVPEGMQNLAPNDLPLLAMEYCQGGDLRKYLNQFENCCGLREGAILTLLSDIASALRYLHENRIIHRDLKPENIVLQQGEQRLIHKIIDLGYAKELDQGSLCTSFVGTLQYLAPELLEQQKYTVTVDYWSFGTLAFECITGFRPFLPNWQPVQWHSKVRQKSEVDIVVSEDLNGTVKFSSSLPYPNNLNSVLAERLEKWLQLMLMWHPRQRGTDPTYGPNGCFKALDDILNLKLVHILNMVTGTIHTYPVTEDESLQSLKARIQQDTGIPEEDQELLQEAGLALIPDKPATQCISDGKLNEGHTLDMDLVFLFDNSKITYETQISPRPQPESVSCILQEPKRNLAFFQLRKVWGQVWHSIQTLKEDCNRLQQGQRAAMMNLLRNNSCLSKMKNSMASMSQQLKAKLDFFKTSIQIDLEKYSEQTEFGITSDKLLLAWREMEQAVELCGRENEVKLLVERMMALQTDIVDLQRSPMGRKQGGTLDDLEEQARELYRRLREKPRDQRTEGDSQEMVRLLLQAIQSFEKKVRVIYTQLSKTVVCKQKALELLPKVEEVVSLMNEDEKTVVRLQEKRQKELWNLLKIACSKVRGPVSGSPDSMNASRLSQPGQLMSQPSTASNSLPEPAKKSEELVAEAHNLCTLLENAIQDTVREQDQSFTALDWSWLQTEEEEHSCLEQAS", "test": "In vitro GST pull-down binding to IKKβ", "conditions": "GST pull-down with purified proteins, immunoblot", "procedure": "FIG. 4B is a pair of photographs of immunoblots. Recombinantly expressed, purified GST- and GST-IKKβ proteins bound to glutathione-agarose beads were incubated with purified MUC1-CD protein. The precipitates were immunoblotted (IB) with anti-MUC1-C antibodies. Input of the GST and GST-IKKβ proteins was assessed by Coomassie blue staining. The molecular weights of proteins (as indicated on the left of the photographs) are expressed as kilodaltons (kDa).\nFIG. 4C (top panel) is a schematic diagram of the amino acid sequence of (i) the MUC1-cytoplasmic domain (MUC1-CD) [amino acids 1-72; SEQ ID NO:2]; (ii) the MUC1-CD fragment [amino acids 1-45; SEQ ID NO:3]; and (iii) the MUC-CD fragment [amino acids 46-72; SEQ ID NO:4]. FIG. 4C (bottom panel) is a photograph of an immunoblot and a photograph of a Coomassie blue-stained electrophoretic gel. GST- and the indicated GST-MUC1-CD fusion proteins bound to glutathione beads were incubated with purified IKKβ. The precipitates were immunoblotted with anti-IKKβ. Input of the GST and GST-MUC1-CD fusion proteins was assessed by Coomassie blue staining. The molecular weights of proteins (as indicated on the left of the photographs) are expressed as kilodaltons (kDa).\nFIG. 11A is a pair of photographs of an immunoblot and Coomassie-blue stained gel. GST and the indicated GST-MUC1-CD fusion proteins (MUC1-CD and MUC1-CD(mSRM)) bound to glutathione beads were incubated with IKKβ. The precipitates were immunoblotted (IB) with an anti-IKKβ antibody. Commassie blue staining of the gel was performed to confirm that equal amounts of GST- and GST-MUC1-CD proteins were used in the experiment. The molecular weights of proteins (as indicated on the left of the photographs) are expressed as kilodaltons (kDa).\n(§2) In vitro binding assays. Purified GST-MUC1-CD (glutathione s-transferase fused to the MUC1-CD polypeptide) was cleaved with thrombin to remove the GST moiety. […] Adsorbates to glutathione-conjugated beads were analyzed by immunoblotting."}, "IKKβ-IKKγ complexes": {"molecular_target": "IKKβ-IKKγ complexes (Homo sapiens, UniProt O14920+Q9Y6K9)", "sequence (Q9Y6K9 whole entry, one chain of several)": "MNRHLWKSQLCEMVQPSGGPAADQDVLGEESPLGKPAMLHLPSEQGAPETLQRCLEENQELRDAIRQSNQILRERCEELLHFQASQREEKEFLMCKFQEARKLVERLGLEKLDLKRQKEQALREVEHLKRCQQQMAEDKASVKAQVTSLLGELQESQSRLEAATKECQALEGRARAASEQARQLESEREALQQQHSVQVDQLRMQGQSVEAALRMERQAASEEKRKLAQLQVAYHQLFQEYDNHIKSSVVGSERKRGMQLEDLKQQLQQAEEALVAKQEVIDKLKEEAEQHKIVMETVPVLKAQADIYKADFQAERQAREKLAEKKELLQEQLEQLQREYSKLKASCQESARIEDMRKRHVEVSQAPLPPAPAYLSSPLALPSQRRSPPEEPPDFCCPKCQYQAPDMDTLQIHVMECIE", "test": "In vitro association of IKKβ with GST-IKKγ in absence and presence of MUC1-CD proteins", "type": "binding", "conditions": "purified IKKβ and GST-IKKγ, with or without added MUC1 protein", "procedure": "FIG. 7C is a series of photographs of immunoblots. GST- or GST-IKKγ bound to glutathione beads was incubated with IKKβ in the absence and presence of MUC1-CD protein. The precipitates were immunoblotted (IB) with anti-IKKβ (upper panel). Input amounts of the various proteins were assessed by immunoblotting with the indicated antibodies (lower 3 panels). The molecular weights of proteins (as indicated on the left of the photographs) are expressed as kilodaltons (kDa).\nas §1, with “12” for “13”, “for” for “for (from top to bottom) phosphor-IKKβ-Ser-181 (first panel),”, “(top” for “(second”, “(middle” for “(third”, “(bottom” for “(fourth”\nas §2"}}}
{"substance": "MUC1-CD: 72 amino acid cytoplasmic domain of human MUC1, SEQ ID NO:2", "values": [{"measurement": "extent of IKKβ phosphorylation on Ser-181", "setting": "IKKβ [1]", "value": "increased significantly"}, {"measurement": "binding to IKKβ", "setting": "IKKβ [2]", "value": "interact directly"}, {"measurement": "interaction between IKKβ and IKKγ", "setting": "IKKβ-IKKγ complexes", "value": "increases the interaction between IKKβ and IKKγ"}]}
